Experiment [1] deals with T1, human IL-23R expressed on the cell surface of stably transfected iLite and HEK cell lines (human, UniProt Q5VWK5 24-629).
T1 construct: whole, on cells; Same receptor on two transfected cell lines; the cell line is named under assay; also called human IL-23R iLite cells; human IL-23R HEK cells
T1 sequence (looked up): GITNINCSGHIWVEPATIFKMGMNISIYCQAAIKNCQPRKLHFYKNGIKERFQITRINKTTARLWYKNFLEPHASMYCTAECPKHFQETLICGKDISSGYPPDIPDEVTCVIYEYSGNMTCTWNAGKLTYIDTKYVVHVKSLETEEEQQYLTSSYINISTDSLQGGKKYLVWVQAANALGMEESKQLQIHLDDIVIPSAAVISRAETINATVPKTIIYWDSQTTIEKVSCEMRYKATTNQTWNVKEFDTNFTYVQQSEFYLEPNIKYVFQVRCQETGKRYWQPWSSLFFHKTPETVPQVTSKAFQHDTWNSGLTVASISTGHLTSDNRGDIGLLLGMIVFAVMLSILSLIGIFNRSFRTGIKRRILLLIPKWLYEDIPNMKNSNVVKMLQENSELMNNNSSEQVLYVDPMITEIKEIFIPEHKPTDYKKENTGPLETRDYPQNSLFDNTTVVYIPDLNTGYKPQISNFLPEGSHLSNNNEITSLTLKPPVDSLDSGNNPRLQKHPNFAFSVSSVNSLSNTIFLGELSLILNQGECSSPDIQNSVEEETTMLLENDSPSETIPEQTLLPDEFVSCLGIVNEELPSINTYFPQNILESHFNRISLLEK
Description: flow cytometry on human IL-23R HEK cells, Expt D (8-point, 96well). As to the method:
HEK-IL-23R cell concentration response mAb binding (8-point, 96-well assay). […] HEK-IL-23R and HEK-parental cells (12.5 μL of each, 120000 cells total) were plated in 2× replicate on 96-well V-bottom plates (Corning, Cat #3357) into 37° C. warmed Assay medium containing serially diluted IL-23R mAbs to a final volume of 150 μL. IL-23R mAbs were allowed to bind to cells for 30 minutes, at 37° C. […] Cells were next washed twice in ice-cold stain buffer, then resuspended in a final volume of 30 μL with Sytox Green viability dye (ThermoFisher, Cat #S7020). Plates were kept on ice until run for analysis on the iQue. All washes were performed by centrifugation (800 rcf, 3 minutes) followed by flick decantation to remove supernatants. Cell-binding to HEK-IL-23R cells was measured with FlowJo, by gating for single, viable cells and determining the geometric mean fluorescence intensity (MFI) for the 647 detection antibody. Geometric mean fluorescence intensities were plotted over log mAb concentrations fitted with a dose response curve with variable slope using GraphPad Prism.

For experiment [2], the target named is T1, human IL-23R expressed on the cell …. Description: flow cytometry on human IL-23R HEK cells, Expt E (11-point, 384well). As to the method: HEK-IL-23R cell concentration response mAb binding (11-point, 384-well assay). […] IL-23R mAbs were allowed to bind to cells for 30 minutes, at 37° C. […] Cells were next washed twice in ice-cold stain buffer, then resuspended in a final volume of 10 μL with Sytox Green viability dye (ThermoFisher, Cat #S7020). Plates were kept on ice until run for analysis on the iQue. All washes were performed by centrifugation (800 rcf, 3 minutes) followed by automated aspiration to remove supernatants with plate washers. Cell-binding to HEK-IL-23R cells was measured with FlowJo, by gating for single, viable cells and determining the geometric mean fluorescence intensity (MFI) for the 647 detection antibody. Geometric mean fluorescence intensities were plotted over log mAb concentrations fitted with a dose response curve with variable slope using GraphPad Prism.
On the technique in general: A flow cytometer gives signals particle by particle.

The results in this text go back to US20250179196A1 (Janssen / Centocor, published 2025).

B1: I23RB317 (antibody, mouse IgG2a, kappa, V domains shown)
VH: QVQLVQSGAEVKKPGSSVKVSCKASGGTFSSYAISWVRQAPGQGLEWMGGIIPIFGTANYAQKFQGRVTITADESTSTAYMELSSLRSEDTAVYYCARGNGVNYHSELDYWGQGTLVTVSS
VL: EIVLTQSPATLSLSPGERATLSCRASQSVDSFLAWYQQKPGQAPRLLIYTASNRATGIPARFSGSGSGTDFTLTISSLEPEDFAVYYCQQGNSAPFTFGQGTKVEIKR
notes: phage display; human V, mouse IgG2a/kappa
With B1, the midpoint of the response in experiment [1], the EC50, lay at 31 nM.

B2: I23RB267 (antibody, mouse IgG2a, kappa, V domains shown)
VH: EVQLVQSGAEVKKPGESLKISCKGSGYSFTSYWIGWVRQMPGKGLEWMGIIYPGDSDTRYSPSFQGQVTISADKSISTAYLQWSSLKASDTAMYYCARVWYSSWDLDYWGQGTLVTVSS
VL: not shown
notes: as for B1
B2 showed an EC50 in experiment [1] of 9.4 nM.

B3: I23RB321 (antibody, mouse IgG2a, kappa, V domains shown)
VH: QVQLVQSGAEVKKPGSSVKVSCKASGGTFSSYGISWVRQAPGQGLEWMGWISAIFGTTNYAQKFQGRVTITADESTSTAYMELSSLRSEDTAVYYCARHWLQSFDYWGQGTLVTVSS
VL: DIQMTQSPSSLSASVGDRVTITCRASQSIGGDLNWYQQKPGKAPKLLIYAASSLQSGVPSRFSGSGSGTDFTLTISSLQPEDFATYYCQQSYSTPLTFGQGTKVEIKR
notes: as for B1
In the case of B3, a half-maximal response in experiment [1] (EC50) required 18.6 nM.

B4: I23RB264 (antibody, mouse IgG2a, kappa, V domains shown)
VH: QVQLVQSGAEVKKPGSSVKVSCKASGGTFSSYAISWVRQAPGQGLEWMGGIIPIFGTANYAQKFQGRVTITADESTSTAYMELSSLRSEDTAVYYCARRSSPGFDYWGQGTLVTVSS
VL: DIQMTQSPSSLSASVGDRVTITCRASQSIDNDLNWYQQKPGKAPKLLIYNASSLQSGVPSRFSGSGSGTDFTLTISSLQPEDFATYYCQQPYSIPLTFGQGTKVEIKR
notes: as for B1
For the molecule B4, the EC50 in experiment [1] was above 50 nM.

B5: I23RB313 (antibody, mouse IgG2a, kappa, V domains shown)
VH: QVQLVQSGAEVKKPGSSVKVSCKASGGTFSSYGISWVRQAPGQGLEWMGWISAIFGTTNYAQKFQGRVTITADESTSTAYMELSSLRSEDTAVYYCARGTVPGFDYWGQGTLVTVSS
VL: DIQMTQSPSSLSASVGDRVTITCRASQSIGEDLNWYQQKPGKAPKLLIYAASSLQSGVPSRFSGSGSGTDFTLTISSLQPEDFATYYCQQSYSTPLTFGQGTKVEIKR
notes: as for B1
B5 registered a 50% effective concentration (EC50) in experiment [1] above 50 nM.

B6: I23RB261 (antibody, mouse IgG2a, kappa, V domains shown)
VH: QVQLVQSGAEVKKPGSSVKVSCKASGGTFSSYAISWVRQAPGQGLEWMGWISPYFGTANYAQKFQGRVTITADESTSTAYMELSSLRSEDTAVYYCARMYRQGFDYWGQGTLVTVSS
VL: DIQMTQSPSSLSASVGDRVTITCRASQSINDDLNWYQQKPGKAPKLLIYAASSLQSGVPSRFSGSGSGTDFTLTISSLQPEDFATYYCQQSYSTPLTFGQGTKVEIKR
notes: as for B1
In experiment [1], B6 registered a concentration giving a half-maximal response (EC50) of 9.2 nM.

B7: I23RB319 (antibody, mouse IgG2a, kappa, V domains shown)
VH: QVQLVQSGAEVKKPGSSVKVSCKASGGTFSSYGISWVRQAPGQGLEWMGWISAIFGTTNYAQKFQGRVTITADESTSTAYMELSSLRSEDTALYYCARPLKQAFDYWGQGTLVTVSS
VL: DIQMTQSPSSLSASVGDRVTITCRASQSITDDLNWYQQKPGKAPKLLIYAASSLQSGVPSRFSGSGSGTDFTLTISSLQPEDFATYYCQQSYSTPLTFGQGTKVEIKR
notes: as for B1
With B7, the EC50 in experiment [1] is 8.7 nM.

B8: I23RB87 (antibody, mouse IgG2a, kappa, V domains shown)
VH: EFQLQQSGPELVKPGTSVKMSCKASGYTFTNYVMHWVKQKPGQGLEWIGYINPYDASPKYNEKFKGKAILTSDKSSSTAYMELSSLTSEDSAVYYCTRDAKLDYFDYWGQGTTLTVSS
VL: DIVMTQTTSSLSASLGDRVTISCRASQDISNYLNWYQQKPDGTVKLLIYYTSRLHSGVPSRFSGSGSGTDFSLTISNLEQEDIATYFCQQGITLPWTFGAGTKLELKR
notes: immunization; mouse IgG2a/kappa
On to B8, for which, in experiment [2], the EC50 is above 50 nM and the “MFI (6.4 nM)” value worked out at 86100 MFI.

B9: I23RB69 (antibody, mouse IgG2a, kappa, V domains shown)
VH: EVQLQQSGAELVKPGASVKISCKASGYSFTGYNMNWVKQSHGKSLEWIGNINPFYDKTSYNQKFKGKATLTVDKASSTAYMQLNSLTSEDSAVYYCARQLGLKGFAYWGQGTLVTVSA
VL: DIVMTQSHKFMSTSVGDRVSITCKASQDVSTAVAWYQQKPGQSPKLLIYSASYRYTGVPDRFTGSGSGTDFTFTISSVQAEDLAVYYCQQHYSTPWTFGGGTKLEMKR
notes: as for B8
With B9, a half-maximal effect in experiment [1] (EC50) was put at 0.6 nM.

B10: I23RB67 (antibody, mouse IgG2a, kappa, V domains shown)
VH: EVQLQQSGAELVKPGASVKLSCKASGYTFTSYWINWVKQRPGQGLEWIGNIYPGSSSTNYNEKFKSKATLTVDTSSSTAYMQLSSLTSDDSAVYYCARSAYGNRLAMDYWGQGTTLTVSS
VL: DVVMTQSHKFMSTSVGDRVSITCKASQDVSTAVAWYQQKPGQSPKLLIYSAFYRYTGVPDRFTGSGSGTDFTFTISSVQAEDLAVYYCQQHYSTPYTFGGGTKLELKR
notes: as for B8
Take B10: in experiment [2], the EC50 stood at 18 nM and the “MFI (6.4 nM)” value stood at 80900 MFI.

B11: I23RB91 (antibody, mouse IgG2a, kappa, V domains shown)
VH: EFQLQQFGPELLKPGASVKISCKASGYTFTDYIMHWVKQSHGKSLEWIGGISPNYGGTGYNGKFKDKATLTVDKSSSTAYMELRSLTSEDSAVYYCARFNNYYYFDYWGQGTTLTVSS
VL: DIKMTQSPSSMYASLGERVTITCKASQDINSYLSWCQQKPGKSPKALIYRANSLVDGVPSRFSGSGSGQDYSLTISSLEYEDMGIYYCLQYDEFPYTFGGGTKLEMKR
notes: as for B8
In experiment [1], B11 came in with an EC50 of 30.3 nM.

B12: I23RB54 (antibody, mouse IgG2a, kappa, V domains shown)
VH: EVQLQQSGGGLVKPGGSLKLSCAASGFTFSSYAMSWVRQTPEKRLEWVAGISSGGSYIYYPDNVKGRFTISRDNARNTLYLQMSSLRSEDTAMYYCARKKSDYGAMDYWGQGTTLTVSS
VL: DIQMTQSPKFLLVSAGDRVTITCKASQSVSNDVAWYQQKPGQSPRLLIYYASNRYTGVPDRFTGSGYGTDFTFTISTVQAEDLAVYFCQQDYSSLPTFGAGTKLEMKR
notes: as for B8
Consider B12, for which, in experiment [2], the response was half-maximal at 35.2 nM (EC50) and the “MFI (6.4 nM)” value turned out to be 63100 MFI.

B13: I23RB102 (antibody, mouse IgG2a, kappa, V domains shown)
VH: QVQLQQPGAELVKPGASVKVSCKASGYTFTKYWINWMNQRPGQGLEWIGNIYPGSISTNYNEKFKSKVTLTVDISSSTAYMQLSSLTSDDSAVYYCARGDFYALDYWGQGTTLTVSS
VL: DIQMTQSPASLSVSVGETVTITCRASENIYSHITWYQLKQGKSPQLLVYASTNLADDVPSRFSGSGSGTQYSLKINSLLSEDFGTYYCQHFWGTPWTFGGGTKLEMKR
notes: as for B8
Consider B13, for which, in experiment [2], the EC50 came to 8.6 nM and the “MFI (6.4 nM)” value stood at 258000 MFI.

B14: I23RB35 (antibody, mouse IgG2a, kappa, V domains shown)
VH: DVQLQESGPGLVKPSQSLSLTCSVTGYSITSGHNWNWIRQFPGNKLEWLGYISYDGSNNYDPSLKNRISITRDTSKNQFFLKLNSVTTEDTATYYCARGGGYFGNSYRVFASWGQGTTVTVSS
VL: DIVLTQSPASLAVSLGQRATISCRASESVDSYGNSFMHWYQQKPGQPPKLLIYRASNLESEIPARFSGRGSGTDFTLTINPVEADDVATYYCQQSNADPYTFGGGTKLEIKR
notes: as for B8
In the case of B14, the EC50 in experiment [1] is 0.2 nM.

B15: I23RB78 (antibody, mouse IgG2a, kappa, V domains shown)
VH: EFQLQQSGGGLVKPGGSLKLSCAASGFTFSNYTMSWVRQTPEKRLKWVACISSGGGNTYYPDSVKGRFTISRDNARNTLYLQMSSLRSEDTAMYYCARRNYRRAMDYWGQGTSVTVSS
VL: DIVMTQSPASLAVSLGQRATISCRASESVDSYGISFMHWYQQKPGQPPKLLIYRASNLESGIPARFSGSGSRTDFTLTINPVEADDVATYYCQQSNEDPWTFGAGTGLEIKR
notes: as for B8
Take B15: in experiment [2], the EC50 was 15.8 nM and the “MFI (6.4 nM)” value was 84200 MFI.

B16: I23RB260 (antibody, mouse IgG2a, kappa, V domains shown)
VH: QVQLVQSGAEVKKPGSSVKVSCKASGGTFSSYGISWVRQAPGQGLEWMGGIIPIFGTANYAQKFQGRVTITADESTSTAYMELSSLRSEDTAVYYCARDFGWSLWFDYWGQGTLVTVSS
VL: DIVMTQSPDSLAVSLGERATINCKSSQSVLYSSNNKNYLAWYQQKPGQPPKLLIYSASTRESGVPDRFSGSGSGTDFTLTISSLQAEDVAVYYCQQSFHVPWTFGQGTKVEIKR
notes: as for B1
With B16, the EC50 in experiment [1] was above 50 nM.

Broadly, the EC50 is the concentration that produces a half-maximal response. Low values mean a more potent agent, high ones a less potent agent.
